{"source": "paper PMC6030200", "about": "(Scientific Reports, 2018)", "proteins": {"B1": {"name": "HAdV-5 penton base protein, recombinant, soluble (natural protein)", "chain": "MRRAAMYEEGPPPSYESVVSAAPVAAALGSPFDAPLDPPFVPPRYLRPTGGRNSIRYSELAPLFDTTRVYLVDNKSTDVASLNYQNDHSNFLTTVIQNNDYSPGEASTQTINLDDRSHWGGDLKTILHTNMPNVNEFMFTNKFKARVMVSRLPTKDNQVELKYEWVEFTLPEGNYSETMTIDLMNNAIVEHYLKVGRQNGVLESDIGVKFDTRNFRLGFDPVTGLVMPGVYTNEAFHPDIILLPGCGVDFTHSRLSNLLGIRKRQPFQEGFRITYDDLEGGNIPALLDVDAYQASLKDDTEQGGGGAGGSNSSGSGAEENSNAAAAAMQPVEDMNDHAIRGDTFATRAEEKRAEAEAAAEAAAPAAQPEVEKPQKKPVIKPLTEDSKKRSYNLISNDSTFTQYRSWYLAYNYGDPQTGIRSWTLLCTPDVTCGSEQVYWSLPDMMQDPVTFRSTRQISNFPVVGAELLPVHSKSFYNDQAVYSQLIRQFTSLTHVFNRFPENQILARPPAPTITTVSENVPALTDHGTLPLRNSIGGVQRVTITDARRRTCPYVYKALGIVSPRVLSSRTF", "notes": "also called 5PB; source: Sf9 (baculovirus, pFastBac HT A), purified (Ni-NTA agarose, HiTrap Q-sepharose)"}}, "molecular_target": "the molecule itself", "assay": "negative-stain electron microscopy", "data": [{"protein": "B1", "values": [{"measurement": "stoichiometry N", "result": 5}]}]}
